For 4 sequences, protein production results are on record in a protein production outcome set (Wang et al. 2014).

A short description of this series: label from the status in PepcDB records.

Consider “MADVGSLGTRLLRIVLGLCALVLVLLALYVSLGRQLVPLVAEYRQQLEDEAGKQLGIPVRIAELTGSWRGFEPLVVARDIQVGDGEQSLRLARVRLAPDLLGSLLARQVRIGSLELEGLKLTLREGEDGQWSLDGLPHSDKPSDPRKLLQFLLQTQRISLLDSQLEVAPRGSAALSLSAVGATLRSSSVGGQSLDARLQLPDGQPLALHAEGRIDSEDWPRSSARFYLSLPQSDWAQWLPAGLTQEWTIVRAKAGGDFWFDWRDGKAQRLVARLLAPQLKASYAARKPVEINDLGMNLFFDREAQGWKVRVGDLAANFGEQRWGEVELLLRRDQQNNEPHWKLQADRVDLTPLVPAIEALAPLPDAAAEWVAGLKPKGILHNLNADFWPQREVPERVSYATNLEKVGISAFHEVPAVENVSGTLTGTLAGGQLDASAQDFMLHLAKVFPEPWRYREARTRMFWSLDDRAFTLGSHLMRVEGEEGSLAGDMLIRLMRDPGAEDYMDLQVGLSDGDARFTAKYLPTQLPGMNKSLANWLKTAIRSGHVEQGYFQWQGSLNRGAAAEAHVMNLYFKVRDGELAYQPGWPALSKTVGEVFVEDSGVRVLASSGNLLNSRVSDVKVDIPLGRPGQTPHLYVDGAVDSNLKDGIKLLQEAPIPTRKIFAGWEGDGPLQGHLTLDIPLDHDEAGKTGVVVDFSTVGATLKMPSPKLDMSEVKGDFRFDLAKGLSAPAVQARVLGSEVRGRIVAEGRGDARTRLLLNGQVAVKSLSDWLGAGQRPLPVSGRLPFQLNLLLDGKDSQLQIDSDLKGAVVDLPAPFGKTAAQARPTQWRMTLDGAERRYWARYDGLASLAYAAPADKPLNGRGALRLGGDPALLPSAQGLRVRGRLAELDWDAWQATLKRYGNGDQAASSAAGLLRGADLRIDSFKGFGQELKNLTVDLARQERAWQLVLVSDLASGRLVLPDARGAPIVVDLDRLNLPKSTLPDENKVEDSDPLAAVDPRSLPAVDVKIGQVALGGQPLGAWSLKVRPGSNGVAFNDLDLDLRGLHVNGSLRWDGSPGNTRSTYQGRIEGKNLADVLKAWNFAPSATSERFRMDINGQWPGSPAYMALKRFSGSMDASLRKGQFVEVEGSAQALRVFGLLNFNAINRRLRLDFSDILGKGLSYDRVKGVLSATDGVYVTREPLKLEGPSSNLELNGTLDLAHDRIDAKLLVTLPLTNNLTLAALIVGGPAVGGAVFVVDKLLGDRVSRFASVQYSVKGPWQDPKISFDKPFEKPR”, for which the protein production result is reported as “failed”.

“MAEAANKNKPHKLIIDNRNSMSMTGVTKVISIDTDLVLLVTEQGKLKITGKNMQASTLDLDKGILELTGNFNTMVYSGEKEGALSLKSLFK”: the protein production entry is “failed”.

Consider “MAEAKSRVGRPSGDTQNRDKLILAARNLFIERPYAQVSIREIASLAGTDPGLIRYYFGSKEKLFSTMIHETAMPVLAQLHKARRETRQESPAALLQTYYSVMSKHPHFPRLMLRIAGLDQSLPENAEVTKAFYEVVNFENIAIFQRLKDKNLLKDDVDAHCAQLSFFAMMVFPFIVPENLLERVGIELTPDFLQLLAEQNTRLLQRGLMDVKDERDE”, for which the protein production entry is given as “not failed”.

On to “MAEAPPVSGTFKFNTDAAEFIPQERKTSGLNCGTQRRLDSSRIGRRNYSSSPPCHLPRHIPYEDISAVHQHSYASGSKPKSPQGFFQSSNKSLKNHGLQNQPWQKARNEKHQNRNKKAQGLSEQTSDTSSLESVARSESGTNPREHSPSESEKEVVIADPRGAKPKKAAQLTYNYGRGPKAKGRLRSEWGNRMSPKSEDENTRPVAISHTDSSDASCRKPVVDPCVCRRNEQRRYPQKRPPWEVEGARPRPGRNPPKQESQRHINAGPKTNMSPIPKDNLRERPTKSACDTGNLAVVSKSSRRVNQEKTAVRRQDPQVLSPFPRGKQNHMLKNVETHTGSLIEQLTTEKYECMVCCELVQVTAPVWSCQSCFHVFHLNCIKKWARSPASHADGQSGWRCPACQNVSAHVPNTYTCFCGKVKNPEWSRNEIPHSCGEVCRKKQPGQDCPHSCNLLCHPGPCPPCPAFTTKTCECGRTRHTVRCGQPVSVHCSNACENILNCGQHHCAELCHGGQCQPCRIILNQVCYCGSTSRDVLCGTDVGKSDGFGDFSCLKICGKDLKCGSHTCSQVCHPQPCQPCPRLPHLVRYCPCGQTPLSQLLEHGSNARKTCMDPVPSCGKVCGKPLACGSSDFIHTCEKLCHEGDCGPCSRTSVISCRCSFRTKELPCTSLKSEDATFMCDKRCNKKRLCGRHKCNEICCVDKEHKCPLICGRKLRCGLHRCEEPCHRGNCQTCWQASFDELTCHCGASVIYPPVPCGTRPPECTQTCARIHECDHPVYHSCHSEEKCPPCTFLTQKWCMGKHEELTIKKLWTFKETLDF”, for which the protein production result is listed as “not failed”.
